This passage reports potency in cAMP production, compared to stresscopin 2 and the pufferfish peptide and reduction in ability to stimulate cAMP production, against amidated stresscopin 1 results from patent US20020082409A1.

Assay in all cases: cell-based or functional assay
Experiment [1] has as its target recombinant CRH R2-alpha expressed in 293T cells (UniProt Q13324).
Experiment [2] concerns the target recombinant CRH R2 beta expressed in 293T cells (UniProt Q13324).
For experiment [3], the target named is recombinant CRH R2 expressed in 293T cells (isoform not stated, Fig. 3f), Q13324.
Chain of recombinant CRH R2 expressed in 293T cells (isoform not stated, Fig. 3f), Q13324 (Q13324 20-411): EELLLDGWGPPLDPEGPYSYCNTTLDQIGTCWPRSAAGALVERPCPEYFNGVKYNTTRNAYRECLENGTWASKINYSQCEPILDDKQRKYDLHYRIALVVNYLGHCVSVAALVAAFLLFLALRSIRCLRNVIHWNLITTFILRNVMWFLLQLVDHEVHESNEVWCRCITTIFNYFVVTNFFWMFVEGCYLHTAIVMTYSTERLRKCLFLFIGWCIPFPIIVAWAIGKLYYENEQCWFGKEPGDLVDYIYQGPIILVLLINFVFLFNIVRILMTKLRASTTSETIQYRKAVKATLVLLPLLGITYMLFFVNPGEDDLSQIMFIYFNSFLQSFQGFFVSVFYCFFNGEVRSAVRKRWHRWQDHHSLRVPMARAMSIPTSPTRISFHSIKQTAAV

Ends that are not written are not given here. Some results are limits rather than exact numbers.

For “stresscopin 1 (full-length 43-amino-acid mature peptide, synthetic, amidated)”, the potency in cAMP production, compared to stresscopin 2 and the pufferfish peptide in experiment [1] and in experiment [2] was above 10 fold each time. For the molecule HPGSRIVLSLDVILGLLQILLEQARARAAREQATTNARILARV-OH [SCP1-NA, full-length stresscopin 1 devoid of amidation at the C-terminus], the reduction in ability to stimulate cAMP production, against amidated stresscopin 1 in experiment [3] is above 50 fold.
